Reference: article PMC4919432, “The Dimeric Architecture of Checkpoint Kinases Mec1^ATR and Tel1^ATM Reveal a Common Structural Organization*” (The Journal of Biological Chemistry, 2016)

Target: T1, Mec1 (yeast (budding yeast), UniProt P38111 1-2368)
T1 construct: Mec1, yeast orthologue of mammalian ATR; 2,368 amino acids as the introduction says; The Mec1 subunit of m1, for the rows of two subunits; also called Mec1^ATR; yeast orthologue of ATR; source: yeast, overexpressed from pBL904 together with Ddc2, purified as the Mec1·Ddc2 complex (IgG-Sepharose, HRV 3C cleavage)
Assay: SEC; Mec1·Ddc2 on Superose 6 HR 10/30, 0.3 ml/min; 50 mM HEPES-KOH pH 7.4, 200 mM KCl, 10% glycerol, 0.1% Tween 20, 0.01% Nonidet P-40, 1 mM EDTA, 1 mM EGTA, 2 mM DTT; size against Bio-Rad gel filtration standards; peak fractions on SDS-PAGE
Conditions: both partners purified

T1 sequence (P38111 whole entry): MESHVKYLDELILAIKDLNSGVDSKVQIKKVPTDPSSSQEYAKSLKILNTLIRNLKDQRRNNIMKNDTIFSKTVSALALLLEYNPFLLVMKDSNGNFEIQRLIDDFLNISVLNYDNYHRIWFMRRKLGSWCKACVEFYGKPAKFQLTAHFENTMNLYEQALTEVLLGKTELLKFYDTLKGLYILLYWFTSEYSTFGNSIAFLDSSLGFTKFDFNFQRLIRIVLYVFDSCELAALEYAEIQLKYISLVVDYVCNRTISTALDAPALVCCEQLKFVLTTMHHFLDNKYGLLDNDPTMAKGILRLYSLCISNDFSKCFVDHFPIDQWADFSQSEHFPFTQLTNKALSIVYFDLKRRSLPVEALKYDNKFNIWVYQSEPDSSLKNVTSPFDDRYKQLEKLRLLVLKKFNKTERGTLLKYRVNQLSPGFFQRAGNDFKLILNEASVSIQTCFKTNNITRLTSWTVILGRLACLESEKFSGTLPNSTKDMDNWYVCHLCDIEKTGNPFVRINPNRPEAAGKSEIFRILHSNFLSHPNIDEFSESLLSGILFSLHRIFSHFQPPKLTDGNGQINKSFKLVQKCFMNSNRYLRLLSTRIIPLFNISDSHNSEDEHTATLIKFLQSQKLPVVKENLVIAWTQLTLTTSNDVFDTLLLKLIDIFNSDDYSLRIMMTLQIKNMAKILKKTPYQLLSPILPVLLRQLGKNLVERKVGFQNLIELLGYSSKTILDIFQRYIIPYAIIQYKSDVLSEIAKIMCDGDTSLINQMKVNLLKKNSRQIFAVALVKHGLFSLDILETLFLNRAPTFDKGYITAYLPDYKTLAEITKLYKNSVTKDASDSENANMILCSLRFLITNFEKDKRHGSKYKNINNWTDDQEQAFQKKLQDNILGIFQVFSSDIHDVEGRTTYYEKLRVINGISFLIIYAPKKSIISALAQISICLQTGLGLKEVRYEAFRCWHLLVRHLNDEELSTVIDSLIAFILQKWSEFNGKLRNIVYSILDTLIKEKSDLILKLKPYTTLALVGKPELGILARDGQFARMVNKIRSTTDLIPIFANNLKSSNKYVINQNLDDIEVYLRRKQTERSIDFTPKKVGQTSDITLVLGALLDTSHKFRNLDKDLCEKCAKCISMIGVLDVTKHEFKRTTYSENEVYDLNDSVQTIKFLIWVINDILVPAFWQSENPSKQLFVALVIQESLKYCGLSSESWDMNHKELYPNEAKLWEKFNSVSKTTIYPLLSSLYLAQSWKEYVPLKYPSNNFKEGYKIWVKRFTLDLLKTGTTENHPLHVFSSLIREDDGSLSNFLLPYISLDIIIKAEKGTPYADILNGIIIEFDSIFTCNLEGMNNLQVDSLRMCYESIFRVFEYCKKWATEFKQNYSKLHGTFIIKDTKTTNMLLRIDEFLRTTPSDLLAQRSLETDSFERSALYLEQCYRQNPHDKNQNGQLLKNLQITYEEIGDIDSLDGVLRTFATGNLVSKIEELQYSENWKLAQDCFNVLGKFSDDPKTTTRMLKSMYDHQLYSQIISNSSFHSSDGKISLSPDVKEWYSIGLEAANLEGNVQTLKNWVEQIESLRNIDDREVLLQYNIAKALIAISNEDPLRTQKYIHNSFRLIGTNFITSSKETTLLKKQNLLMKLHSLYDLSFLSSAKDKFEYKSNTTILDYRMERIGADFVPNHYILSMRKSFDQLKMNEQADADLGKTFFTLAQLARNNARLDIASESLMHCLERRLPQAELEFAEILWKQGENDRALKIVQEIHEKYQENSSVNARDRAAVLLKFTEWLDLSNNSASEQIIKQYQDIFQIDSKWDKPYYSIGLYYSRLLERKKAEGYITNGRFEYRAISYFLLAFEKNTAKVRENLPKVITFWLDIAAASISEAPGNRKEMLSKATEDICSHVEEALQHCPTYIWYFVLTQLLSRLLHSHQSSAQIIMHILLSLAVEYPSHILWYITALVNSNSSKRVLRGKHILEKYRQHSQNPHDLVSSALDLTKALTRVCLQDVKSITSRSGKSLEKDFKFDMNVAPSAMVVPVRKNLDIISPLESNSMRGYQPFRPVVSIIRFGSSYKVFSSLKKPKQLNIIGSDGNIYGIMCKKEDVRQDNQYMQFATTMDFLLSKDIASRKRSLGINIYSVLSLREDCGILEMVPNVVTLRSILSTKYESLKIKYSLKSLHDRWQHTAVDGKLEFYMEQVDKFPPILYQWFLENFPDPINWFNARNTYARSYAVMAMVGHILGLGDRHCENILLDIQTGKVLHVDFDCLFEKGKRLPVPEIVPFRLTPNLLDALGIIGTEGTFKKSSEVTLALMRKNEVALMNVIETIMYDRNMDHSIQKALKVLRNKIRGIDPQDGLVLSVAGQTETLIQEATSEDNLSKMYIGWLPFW

B1: Ddc2 (natural protein, yeast (budding yeast), UniProt Q04377 1-747, looked up)
chain: MRRETVGEFSSDDDDDILLELGTRPPRFTQIPPSSAALQTQIPTTLEVTTTTLNNKQSKNDNQLVNQLNKAQGEASMLRDKINFLNIEREKEKNIQAVKVNELQVKHLQELAKLKQELQKLEDEKKFLQMEARGKSKREVITNVKPPSTTLSTNTNTITPDSSSVAIEAKPQSPQSKKRKISDNLLKKNMVPLNPNRIIPDETSLFLESILLHQIIGADLSTIEILNRLKLDYITEFKFKNFVIAKGAPIGKSIVSLLLRCKKTLTLDRFIDTLLEDIAVLIKEISVHPNESKLAVPFLVALMYQIVQFRPSATHNLALKDCFLFICDLIRIYHHVLKVPIHESNMNLHVEPQIFQYELIDYLIISYSFDLLEGILRVLQSHPKQTYMEFFDENILKSFEFVYKLALTISYKPMVNVIFSAVEVVNIITSIILNMDNSSDLKSLISGSWWRDCITRLYALLEKEIKSGDVYNENVDTTTLHMSKYHDFFGLIRNIGDNELGGLISKLIYTDRLQSVPRVISKEDIGMDSDKFTAPIIGYKMEKWLLKLKDEVLNIFENLLMIYGDDATIVNGEMLIHSSKFLSREQALMIERYVGQDSPNLDLRCHLIEHTLTIIYRLWKDHFKQLREEQIKQVESQLIMSLWRFLVCQTETVTANEREMRDHRHLVDSLHDLTIKDQASYYEDAFEDLPEYIEEELKMQLNKRTGRIMQVKYDEKFQEMARTILESKSFDLTTLEEADSLYISMGL
notes: Ddc2 (also called Lcd1 or Pie1), yeast orthologue of ATRIP; The Ddc2 subunit of m1, for the rows of two subunits; also called Lcd1; Pie1; source: yeast, overexpressed from pBL904 together with Mec1, purified as the Mec1·Ddc2 complex (IgG-Sepharose, HRV 3C cleavage)
Does B1 bind?
Result: binds
